According to patent EP3388527:

Molecular target: T1, GP-1 (human, UniProt Q14242)
T1 chain: QATEYEYLDYDFLPETEPP
Assay: SPR

binding result: no binding
B1: SelK1 (antibody, V domains shown)
VH: QVQLQQSGPGLVKPSQTLSLTCAISGDSVSSNIAAWHWIRLSPSRGLEWLGRTYYRRSKWNYDYALSVKSRININPDTSKNLFSLQLNSVTPEDTAVYYCTRGGGRAHSAWGQGTLVTVSS
VL: EIVLTQSPGTLSVSPGERATLSCRASQSVSRSHLAWYQQKPGQAPRLLIFGASSRATGIPDRFSGSGSGTDFTLTISRLEPEDFAVYYCQQYGRPGVTFGQGTKVEIK
